For the assay, the target named is monomeric SARS-CoV-2 RBD (S residues 332-534) with Flag peptide and 8xHis-tag (SARS-CoV-2 (WA1 strain), UniProt P0DTC2 332-534). In words: SPR. Background: SPR reads the build-up and loss of mass on a sensor chip optically.

B1: hcAb 2.20 (Nb 2.20 fused to the human IgG1 hinge and Fc) (Fc fusion)
chain: QVQLVESGGGSVQAGGSLRLSCAASGYTYNNYYMGWFRQAPGKEREGVAAINSDGLDTYVADSVKGRFTISRDNAKDTVHLQMNSLKPEDTAIYSCATGRTVYYSGYDFRLSVDDYWGQGTQVTVSS
In turn, B1 registered a Kd of 0.21 nM.

B2: Nb 2.11, monomeric nanobody (VHH)
VHH: QVQLVESGGGSVQAGGSLRLSCAASGDASNRKCVSWFRRAPGKEREGVALIFPVGSSTAYADSVKGRFTISQDSAKDTVYLQMNNLKPEDSGTYYCAAVSWGGRCNLETQTVTFWGQGTQVTVSS
Molecule B2 gave a Kd of 2.17 nM.

B3: hcAb 2.11 (Nb 2.11 fused to the human IgG1 hinge and Fc) (Fc fusion)
chain: B2 VHH
Take B3: the equilibrium dissociation constant (Kd) amounted to 0.16 nM.

B4: Nb 1.16, monomeric nanobody (VHH)
VHH: QVQLVESGGGSVQAGGSLRLSCAASGNTSKRKCVGWFRRAPGKEREGVTLIYTVGGSTVYADSVKGRFTISQDNAKDTVYLQMNSLKPEDSAMYYCAAESWGRQCNLETHRFTFWGQGTQVTVSS
Take B4: the Kd worked out at 3.59 nM.

B5: hcAb 1.16 (Nb 1.16 fused to the human IgG1 hinge and Fc) (Fc fusion)
chain: B4 VHH
Molecule B5 registered a Kd of 0.25 nM. This Kd lies about 14-fold lower than the previous one.

B6: hcAb 1.29 (Nb 1.29 fused to the human IgG1 hinge and Fc) (Fc fusion)
chain: QVQLVESGGGSVQAGGSLRLSCAASGYTINTDAVAWFRQAPGKGDERVAVIYTGSGNTNYADSVKGRFTISQDNAKNTVYLQMNSLKPEDTALYYCASGYYGASGYDFNNWGQGTQVTVSS
Turning to B6, binding was characterised by a dissociation constant (Kd) of 0.63 nM.

B7: hcAb 2.15 (Nb 2.15 fused to the human IgG1 hinge and Fc) (Fc fusion)
chain: QVQLVESGGGSVQAGGSLKLSCAASGYASWARKCIGWFRQAPGQEREGVAAIFDFDGSTYYSDSVKGRFTISGDNAKNTVSLQMNSLLPKDTAVYYCTVAFGTCDNWYRGRGDYWGQGTQVTVSS
As to B7, the affinity, expressed as Kd, was 0.08 nM.

B8: Nb 2.15, monomeric nanobody (VHH)
VHH: B7 chain
Molecule B8 returned a Kd of 0.39 nM.

B9: hcAb 1.10 (Nb 1.10 fused to the human IgG1 hinge and Fc) (Fc fusion)
chain: QVQLVESGGGSVQAGGSLRLSCAASGYTYSTCRKGWYRQAPGKERELVASITADGATYYLDSVKGRLTISQDNAKNTVYLQMNSLKPEDTAVYYCAASVKDFTCTFNSWGQGTQVTVSS
B9 returned a Kd of 0.77 nM.

B10: hcAb 2.1 (Nb 2.1 fused to the human IgG1 hinge and Fc) (Fc fusion)
chain: QVQLVESGGGSVQAGGSLRLSCAAFGATISSAHMGWFRQAPGKEREGVAFRYTDGSSTYYTTSVRGRFTISQDNAKNTVYLQMNSLKPEDTAMYYCASNPSWGRLVGGQYNNWGQGTQITVSS
B10 gave an equilibrium dissociation constant (Kd) of 0.36 nM. Against the preceding molecule, the Kd is about 2.1-fold lower.

B11: Nb 2.1, monomeric nanobody (VHH)
VHH: B10 chain
Turning to B11, the Kd came out at 1.74 nM.

B12: hcAb 1.26 (Nb 1.26 fused to the human IgG1 hinge and Fc) (Fc fusion)
chain: QVQLVESGGGLVQAGGSLRLSCAATGYTWSSVCMGWFRQAPGKEREGVAGIPSGRNRPYYADSVKGRFTISQDNAKNAVFLLMNSLKPEDTAIYYCAPCSAPHDPEYNYWGQGTQVTVSS
Molecule B12 returned a Kd of 0.08 nM.

As a reminder, the Kd is the free concentration of one partner at which half of the binding sites on the other are occupied at equilibrium, for simple one-to-one binding.

Values taken from PMC9082315 (2022).
